Reference: paper PMC4622713

Key:
FcRn = FcRn (UniProt P55899); assay: SPR
[1] = molecular target: CT-P13 (Remsima®, infliximab biosimilar); assay: ELISA
[2] = molecular target: Remicade® (infliximab, reference medicinal product); assay: ELISA

Sequence of UniProt P55899 (P55899 whole entry, looked up, tested part not stated): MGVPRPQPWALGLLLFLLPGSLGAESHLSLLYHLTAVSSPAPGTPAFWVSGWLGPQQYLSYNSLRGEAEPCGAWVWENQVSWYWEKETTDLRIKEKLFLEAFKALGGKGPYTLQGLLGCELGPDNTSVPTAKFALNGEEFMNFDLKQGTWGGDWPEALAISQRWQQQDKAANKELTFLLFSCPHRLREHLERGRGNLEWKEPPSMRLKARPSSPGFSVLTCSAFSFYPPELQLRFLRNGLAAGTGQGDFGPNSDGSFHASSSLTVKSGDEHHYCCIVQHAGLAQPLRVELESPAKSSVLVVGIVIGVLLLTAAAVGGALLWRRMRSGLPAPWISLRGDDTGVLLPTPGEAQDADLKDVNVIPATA

Substance	relative binding affinity, average (%) (FcRn)	relative binding affinity, average (%) [1] [%]	relative binding affinity, average (%) [2] [%]
Remicade® (infliximab, reference medicinal product) (antibody)	97		
C1q (complex)		100	98
CT-P13 (Remsima®, infliximab biosimilar) (antibody)	101		
